This passage reports Km and Vmax results from patent US6107069A, “Recombinant kynurenine-3-hydroxylase enzyme and process for its preparation” (priority 1996, dated 2000).

Substrate in the series: Nc1ccccc1C(=O)C[C@H](N)C(=O)O
As to the kind of experiment: cells, lysate or membranes named. The following applies: other: L-kynurenine 1 to 4,000 μM, OD600 = 0.6, IPTG 1 mM, 2 h at 37° C.

B1: human recombinant kyn-3-OHase (Homo sapiens) (protein)
chain: MDSSVIQRKKVAVIGGGLVGSLQACFLAKRNFQIDVYEAREDTRVATFTRGRSINLALSHRGRQALKAVGLEDQIVSQGIPMRARMIHSLSGKKSAIPYGTKSQYILSVSRENLNKDLLTAAEKYPNVKMHFNHRLLKCNPEEGMITVLGSDKVPKDVTCDLIVGCDGAYSTVRSHLMKKPRFDYSQQYIPHGYMELTIPPKNGDYAMEPNYLHIWPRNTFMMIALPNMNKSFTCTLFMPFEEFEKLLTSNDVVDFFQKYFPDAIPLIGEKLLVQDFFLLPAQPMISVKCSSFHFKSHCVLLGDAAHAIVPFFGQGMNAGFEDCLVFDELMDKFSNDLSLCLPVFSRLRIPDDHAISDLSMYNYIEMRAHVNSSWFIFQKNMERFLHAIMPSTFIPLYTMVTFSRIRYHEAVQRWHWQKKVINKGLFFLGSLIAISSTYLLIHYMSPRSFLCLRRPWNWIAHFRNTTCFPAKAVDSLEQISNLISR
As for B1, the Km is 57 ± 2 µM and the Vmax is 10.5±0.11 nmol/hour.mg of protein.
